Series [1] deals with T1, human PXR-LBD (pregnane X receptor ligand binding domain, residues 130-434) with N-terminal 6x His (human, UniProt O75469 130-434).
T1 construct: also called apo PXR; not shown: N-terminal 6x His tag
T1 sequence: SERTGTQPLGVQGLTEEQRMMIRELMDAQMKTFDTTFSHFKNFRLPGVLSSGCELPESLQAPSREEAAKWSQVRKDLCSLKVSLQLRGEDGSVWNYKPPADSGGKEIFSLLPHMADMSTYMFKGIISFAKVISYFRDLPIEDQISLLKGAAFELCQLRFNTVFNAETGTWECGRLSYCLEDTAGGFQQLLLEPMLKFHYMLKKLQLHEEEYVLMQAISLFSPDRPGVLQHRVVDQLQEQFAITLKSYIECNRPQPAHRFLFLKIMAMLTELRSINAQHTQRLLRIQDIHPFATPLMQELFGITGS
Briefly: temperature-dependent circular dichroism (thermal denaturation) of PXR with 50 uM peptide. (In general: CD spectra are sensitive to the conformation of chiral molecules.)

Series [2] addresses T1, human PXR-LBD (pregnane X receptor …). Briefly: temperature-dependent circular dichroism (thermal denaturation at 220 nm), 2.5 uM PXR, 50 uM peptide.
Series [3] shares this target. Briefly: temperature-dependent circular dichroism (thermal denaturation), shift against apo PXR (Tm 41.5 C).

Data on one molecule can be found in US20100286372A1 (SCHERING, published 2010).

B1: SRC-1 peptide (676-CPSSHSSLTERHKILHRLLQEGSPS-700) (peptide)
peptide: CPSSHSSLTERHKILHRLLQEGSPS
As for B1, the Tm in series [1] amounted to 45.5 C. In series [2], this molecule registered a Kd of 1.34 µM. Further, the ΔTm in series [3] came to 4 C.

A word on the Kd: it is the constant that tells how readily two partners part at equilibrium.
